B1: ss-DNA aptamer (Aβ-42 aptamer) (ssDNA)
DNA: AGTCTAGGATTCGGCGTGGGTTAATTTTTTGCTGCCTGTGGTGTTGGGGCGGGTGCG
modifications: 5' NH2-C6
B2: 17bp-5T TDN (tetrahedral DNA nanostructure with Aβ-42 aptamer) (structured_DNA)
DNA 1: AGTCTAGGATTCGGCGTGGGTTAATTTTTTGCTGCCTGTGGTGTTGGGGCGGGTGCGTTTTTACATTCCTAAGTCTGAAACATTACAGCTTGCTACACGAGAAGAGCCGCCATAGTA
DNA 2: TATCACCAGGCAGTTGACAGTGTAGCAAGCTGTAATAGATGCGAGGGTCCAATAC
DNA 3: TCAACTGCCTGGTGATAAAACGACACTACGTGGGAATCTACTATGGCGGCTCTTC
DNA 4: TTCAGACTTAGGAATGTGCTTCCCACGTAGTGTCGTTTGTATTGGACCCTCGCAT
modifications: 5' NH2-C6 on strands B17, C17, D17

What was measured:
[1] = biological target: T1, Aβ-42 (amyloid beta 1-42) (UniProt P05067 672-713); test: G-FET (VDirac shift, Hill fit); five orders of magnitude weaker than TDN; 12.5 mM Mg2+; SI captions say insulin; 1x PBS with 12.5 mM Mg2+, pH 7.0-7.4, room temperature; or full serum; probe immobilized on graphene FET; settings: protein: commercial
[2] = biological target: T1, Aβ-42 (amyloid beta 1-42); test: G-FET (VDirac shift, Ids-t); full serum; 1x PBS with 12.5 mM Mg2+, pH 7.0-7.4, room temperature; or full serum; probe immobilized on graphene FET; settings: protein: commercial; DNA tetrahedron of 4 strands, six 17 bp edges, pendant aptamer with 5T spacer
[3] = biological target: T1, Aβ-42 (amyloid beta 1-42); test: G-FET (VDirac shift, Hill fit); pseudo KD; 12.5 mM Mg2+; PBS; 1x PBS with 12.5 mM Mg2+, pH 7.0-7.4, room temperature; or full serum; probe immobilized on graphene FET; settings: protein: commercial; DNA tetrahedron of 4 strands, six 17 bp edges, pendant aptamer with 5T spacer

T1 sequence (P05067 672-713): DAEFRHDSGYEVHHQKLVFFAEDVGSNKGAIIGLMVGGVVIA

| Binder | binding signal [1] | binding result [2] | binding result [3] |
| --- | --- | --- | --- |
| B1 | ~100000 fold higher pseudo KD than TDN | – | – |
| B2 | – | binds | binds |

Source: article PMC12158189, “Rigid DNA Frameworks Anchored Transistor Enabled Ultrasensitive Detection of Aβ-42 in Serum”
